# Measured values reported in patent US6706266, “Oncostatin M antagonists” (SmithKline Beecham Corporation).
# Changes are numbered by the printed parent chain. In names and notes the source's numbering stands. Several values for one entry are separate records, joined by “and”; a condition that tells them apart may be missing. Identical values can stand only once.
# T1: oncostatin M (hOSM, mature) (Homo sapiens) (UniProt P13725)
# T1 sequence: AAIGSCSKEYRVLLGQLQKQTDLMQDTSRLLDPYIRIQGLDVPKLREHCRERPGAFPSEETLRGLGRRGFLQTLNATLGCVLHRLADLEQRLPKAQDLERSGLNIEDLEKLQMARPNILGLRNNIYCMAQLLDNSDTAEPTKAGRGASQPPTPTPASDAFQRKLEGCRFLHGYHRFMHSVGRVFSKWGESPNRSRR
# T2: gp130 on HepG2 B6 cells (UniProt P40189 23-918, limits assumed)
# T2 sequence (looked up): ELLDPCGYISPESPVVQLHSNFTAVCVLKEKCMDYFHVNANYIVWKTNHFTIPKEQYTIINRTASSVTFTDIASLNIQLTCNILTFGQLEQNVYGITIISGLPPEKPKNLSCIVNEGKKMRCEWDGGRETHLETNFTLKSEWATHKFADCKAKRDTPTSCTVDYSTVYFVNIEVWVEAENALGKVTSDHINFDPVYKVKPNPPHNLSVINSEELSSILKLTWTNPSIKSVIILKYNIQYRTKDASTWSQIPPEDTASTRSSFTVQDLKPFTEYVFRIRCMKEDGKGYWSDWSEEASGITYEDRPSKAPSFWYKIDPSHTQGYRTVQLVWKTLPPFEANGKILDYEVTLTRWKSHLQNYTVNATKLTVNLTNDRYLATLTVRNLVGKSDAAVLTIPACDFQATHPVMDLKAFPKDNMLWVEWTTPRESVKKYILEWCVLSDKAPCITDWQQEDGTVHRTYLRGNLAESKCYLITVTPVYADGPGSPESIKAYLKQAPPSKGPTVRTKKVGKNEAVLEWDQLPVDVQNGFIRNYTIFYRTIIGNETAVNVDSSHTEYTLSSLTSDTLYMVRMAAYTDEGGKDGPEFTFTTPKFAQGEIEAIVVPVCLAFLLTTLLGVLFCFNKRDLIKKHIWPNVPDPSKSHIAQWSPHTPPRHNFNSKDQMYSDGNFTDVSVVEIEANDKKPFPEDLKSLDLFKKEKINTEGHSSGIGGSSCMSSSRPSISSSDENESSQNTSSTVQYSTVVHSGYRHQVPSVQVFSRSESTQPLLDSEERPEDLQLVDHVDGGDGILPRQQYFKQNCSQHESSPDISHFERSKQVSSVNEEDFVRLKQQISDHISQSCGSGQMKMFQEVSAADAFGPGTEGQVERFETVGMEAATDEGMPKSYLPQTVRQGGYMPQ
# T3: oncostatin M (hOSM, mature) (Homo sapiens, UniProt P13725 SEQ:26-221)
# T3 sequence: T1 sequence
# T4: gp130-Fc fusion protein (human, UniProt P40189 23-619)
# T4 construct: extracellular domain; not shown: Fc fragment of human IgG1
# T4 sequence (looked up): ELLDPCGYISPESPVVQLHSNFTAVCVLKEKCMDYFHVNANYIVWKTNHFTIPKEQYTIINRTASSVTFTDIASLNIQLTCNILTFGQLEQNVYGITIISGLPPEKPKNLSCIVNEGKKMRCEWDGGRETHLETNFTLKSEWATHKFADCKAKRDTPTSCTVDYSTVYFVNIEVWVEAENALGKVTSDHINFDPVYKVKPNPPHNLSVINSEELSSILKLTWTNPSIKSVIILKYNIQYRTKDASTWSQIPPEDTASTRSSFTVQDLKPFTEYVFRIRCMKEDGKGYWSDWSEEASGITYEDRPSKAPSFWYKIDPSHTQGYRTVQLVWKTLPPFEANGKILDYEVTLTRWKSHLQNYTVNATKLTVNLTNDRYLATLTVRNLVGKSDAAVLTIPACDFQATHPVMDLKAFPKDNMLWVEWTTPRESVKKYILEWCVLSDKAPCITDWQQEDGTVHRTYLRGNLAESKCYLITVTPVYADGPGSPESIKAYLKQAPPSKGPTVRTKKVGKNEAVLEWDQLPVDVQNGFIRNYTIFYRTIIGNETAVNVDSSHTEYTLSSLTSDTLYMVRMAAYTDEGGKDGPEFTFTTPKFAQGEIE
# B1: OSM-GST mutant Q18A (ligand)
# chain: T1 sequence with Q18A
# notes: Alanine mutant of m4; also called (11)Q18A; 11 Q18A; not shown: Its linker is left out
# B2: OSM-GST mutant R122A (ligand, not shown: a dimerising Fc or GST; large carriers; small tags and cut ends)
# chain: T1 sequence with R122A
# notes: Alanine mutant of m4; also called (21)R122A; 21 R122A
# B3: OSM-GST mutant T21A (ligand, not shown: a dimerising Fc or GST; large carriers; small tags and cut ends)
# chain: T1 sequence with T21A
# notes: Alanine mutant of m4; also called (14)T21A; 14 T21A
# B4: OSM-GST mutant R11A (ligand, not shown: a dimerising Fc or GST; large carriers; small tags and cut ends)
# chain: T1 sequence with R11A
# notes: Alanine mutant of m4; also called (5)R11A; 5 R11A
# B5: OSM-GST mutant Q25A (ligand, not shown: a dimerising Fc or GST; large carriers; small tags and cut ends)
# chain: T1 sequence with Q25A
# notes: Alanine mutant of m4; also called (26)Q25A; 26 Q25A
# B6: OSM-GST mutant Y126A (ligand, not shown: a dimerising Fc or GST; large carriers; small tags and cut ends)
# chain: T1 sequence with Y126A
# notes: Alanine mutant of m4; also called (24)Y126A; 24 Y126A
# B7: OSM-GST mutant Y10A (ligand, not shown: a dimerising Fc or GST; large carriers; small tags and cut ends)
# chain: T1 sequence with Y10A
# notes: Alanine mutant of m4; also called (4)Y10A; 4 Y10A
# B8: OSM-GST mutant S7A (ligand, not shown: a dimerising Fc or GST; large carriers; small tags and cut ends)
# chain: T1 sequence with S7A
# notes: Alanine mutant of m4; also called (1)S7A; 1 S7A
# B9: OSM-GST mutant Q130A (ligand, not shown: a dimerising Fc or GST; large carriers; small tags and cut ends)
# chain: T1 sequence with Q130A
# notes: Alanine mutant of m4; also called (25)Y130A; 25 Q130A
# B10: ADR147 (aptamer raised to CD95 ligand) (ssRNA)
# RNA: GGGAGGACGAUGCGGUUAUACUAAGCUGCGGUUAGCGACAGCCCUCCCUAGCGCCUCAGACGACUCGCCCGA
# modifications: 2'-F pyrimidines
# Target: T1, oncostatin M (hOSM, mature) (Homo sapiens)
# Test: filter
# Conditions: 2'-F pyrimidines; no affinity at any concentration tested
row,Molecule,Kd [µM]
1,GGGAGGACGAUGCGGNNNNNNNNNNNNNNNNNNNNNNNNNNNNNNNNNNNNNNNNCCGCAUCGUCCUCCC [40N7 starting random RNA pool],> 10

# Target: T2, gp130 on HepG2 B6 cells
# Test: cell-based or functional assay
# Conditions: not given
Molecule,sPAP HepG2 B6 assay: Expt 1 % (EC50 as % of wild type EC50) [%],sPAP HepG2 B6 assay: Expt 1 EC50 [mg/L],sPAP HepG2 B6 assay: Expt 2 % (EC50 as % of wild type EC50) [%],sPAP HepG2 B6 assay: Expt 2 EC50 [mg/L],sPAP HepG2 B6 assay: Mean % of wild type EC50 [%],sPAP HepG2 B6 assay: Expt 3 % (EC50 as % of wild type EC50) [%],sPAP HepG2 B6 assay: Expt 3 EC50 [mg/L]
B1,84,0.0202,68,0.0217,76,,
B2,135,0.0324,43,0.0138,101,124,0.0473
B3,71,0.017,33,0.0105,52,,
B4,118,0.0286,86,0.0277,102,,
B5,55,0.0133,41,0.013,48,,
B6,386,0.093,32,0.0103,175,106,0.0408
B7,134,0.0324,256,0.082,195,,
B8,50,0.012,69,0.0222,59.5,,
B9,52,0.0125,26,0.0082,39,,

# Target: T3, oncostatin M (hOSM, mature)
# Test: competition; little activity in OSM/gp130 ELISA
# Conditions: tags: expressed in E. coli as GST fusion, GST removed by thrombin cleavage
# Protocol: Effect of Point Mutations on the Ability of OSM-GST to Compete with Wild Type OSM Binding to gp130-Fc in an ELISA Nunc Immunoplates (F6 Maxisorp, Life Technologies) were coated overnight (4° C.) with wild type OSM (produced according to Example 7a); 50 µl/well, 1 µg/ml in carbonate/bicarbonate buffer pH 9.4). Plates were washed (×6 in PBS 0.05% tween 20, using Skatron Plate washer), tapped dry and blocked to reduce non-specific binding (200 µl/well, 1% BSA/PBS). Following 1 h incubation (room temperature on a shaking platform) the plates were tapped dry and wild type (wt) or mutant OSM-GST from Example 9b added (50 µl/well, 20–0.002 µg/ml, titrated in 1%BSA/PBS). As a positive control polyclonal anti-human OSM antibody (R&D Systems) was also tested (20–0.02 µg/ml). […] Following a 5 h incubation (room temperature on a shaking platform) the plates were washed (×6) and developed using ELISA Amplification System (Life Technologies) as manufacturer's instructions and the OD measured at 490 nm. On each plate the total binding was determined by gp130-Fc/conjugate and OSM in the presence of 1%BSA/PBS, and non-specific binding by gp130-Fc/conjugate in absence of OSM, or conjugate binding to OSM in absence of gp130-Fc. […]
row,Molecule,binding result
1,B10,no binding

# Target: T4, gp130-Fc fusion protein
# Test: competition ELISA: OSM-GST titrated against plate-bound wt OSM for gp130-Fc; mean
# Conditions: not given
# Protocol: (§1) Plates were washed (×6 in PBS 0.05% tween 20, using Skatron Plate washer), tapped dry and blocked to reduce non-specific binding (200 µl/well, 1% BSA/PBS). Following 1 h incubation (room temperature on a shaking platform) the plates were tapped dry and wild type (wt) or mutant OSM-GST from Example 9b added (50 µl/well, 20–0.002 µg/ml, titrated in 1%BSA/PBS). As a positive control polyclonal anti-human OSM antibody (R&D Systems) was also tested (20–0.02 µg/ml). […] Following a 5 h incubation (room temperature on a shaking platform) the plates were washed (×6) and developed using ELISA Amplification System (Life Technologies) as manufacturer's instructions and the OD measured at 490 nm.
row,Molecule,IC50 [mg/L]
1,B1,0.395
2,B2,0.176
3,B3,0.084
4,B4,0.239
5,B5,0.044
6,B6,0.382
7,B7,0.223
8,B8,0.133
9,B9,0.14

# Target: T4, gp130-Fc fusion protein
# Test: competition ELISA: OSM-GST titrated against plate-bound wt OSM for gp130-Fc; single experiment
# Conditions: not given
# Protocol: as §1
row,Molecule,IC50
1,B1,0.32 mg/L and 0.31 mg/L and 0.555 mg/L
2,B2,0.14 mg/L and 0.22 mg/L and 0.167 mg/L
3,B3,0.108 mg/L and 0.044 mg/L and 0.101 mg/L
4,B4,0.181 mg/L and 0.255 mg/L and 0.28 mg/L
5,B5,0.042 mg/L and 0.036 mg/L and 0.055 mg/L
6,B6,0.386 mg/L and 0.359 mg/L and 0.4 mg/L
7,B7,0.32 mg/L and 0.18 mg/L and 0.168 mg/L
8,B8,0.199 mg/L and 0.078 mg/L and 0.121 mg/L
9,B9,0.145 mg/L and 0.18 mg/L and 0.094 mg/L
